The results in this text go back to article PMC7604772 (The Journal of Cell Biology, 2020).

Square brackets hold non-standard residues; d marks the D form. * marks the point of attachment. Biotin = O=C1N[C@H]2[C@H](CS[C@H]2CCCCC(=O)*)N1; pT = C[C@@H](OP(=O)(O)O)[C@H](N)C(=O)O

The target of this assay is His-Sumo–tagged talin F3 subdomain of the FERM domain (mouse, UniProt P26039 309-411). The experiment in a line: pull-down.
Chain of His-Sumo–tagged talin F3 subdomain of the FERM domain (P26039 309-411): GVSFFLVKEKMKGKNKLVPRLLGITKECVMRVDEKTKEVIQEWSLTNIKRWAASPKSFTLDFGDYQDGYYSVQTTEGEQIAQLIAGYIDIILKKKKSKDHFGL

B1: biotin-integrin phospho-peptide β1-762-798 pTpT (peptide)
peptide: Biotin-EFAKFEKEKMNAKWDTGENPIYKSAV[pT][pT]VVNPKYEGK-OH
SMILES: CC[C@H](C)[C@H](NC(=O)[C@@H]1CCCN1C(=O)[C@H](CC(N)=O)NC(=O)[C@H](CCC(=O)O)NC(=O)CNC(=O)[C@@H](NC(=O)[C@H](CC(=O)O)NC(=O)[C@H](Cc1c[nH]c2ccccc12)NC(=O)[C@H](CCCCN)NC(=O)[C@H](C)NC(=O)[C@H](CC(N)=O)NC(=O)[C@H](CCSC)NC(=O)[C@H](CCCCN)NC(=O)[C@H](CCC(=O)O)NC(=O)[C@H](CCCCN)NC(=O)[C@H](CCC(=O)O)NC(=O)[C@H](Cc1ccccc1)NC(=O)[C@H](CCCCN)NC(=O)[C@H](C)NC(=O)[C@H](Cc1ccccc1)NC(=O)[C@H](CCC(=O)O)NC(=O)CCCC[C@@H]1SC[C@@H]2NC(=O)N[C@@H]21)[C@@H](C)O)C(=O)N[C@@H](Cc1ccc(O)cc1)C(=O)N[C@@H](CCCCN)C(=O)N[C@@H](CO)C(=O)N[C@@H](C)C(=O)N[C@H](C(=O)N[C@H](C(=O)N[C@H](C(=O)N[C@H](C(=O)N[C@H](C(=O)N[C@@H](CC(N)=O)C(=O)N1CCC[C@H]1C(=O)N[C@@H](CCCCN)C(=O)N[C@@H](Cc1ccc(O)cc1)C(=O)N[C@@H](CCC(=O)O)C(=O)NCC(=O)N[C@@H](CCCCN)C(=O)O)C(C)C)C(C)C)[C@@H](C)OP(=O)(O)O)[C@@H](C)OP(=O)(O)O)C(C)C
B1: the binding result is given as “binds”.

B2: biotin-integrin peptide β1-762-798 (peptide)
peptide: Biotin-EFAKFEKEKMNAKWDTGENPIYKSAVTTVVNPKYEGK-OH
SMILES: CC[C@H](C)[C@H](NC(=O)[C@@H]1CCCN1C(=O)[C@H](CC(N)=O)NC(=O)[C@H](CCC(=O)O)NC(=O)CNC(=O)[C@@H](NC(=O)[C@H](CC(=O)O)NC(=O)[C@H](Cc1c[nH]c2ccccc12)NC(=O)[C@H](CCCCN)NC(=O)[C@H](C)NC(=O)[C@H](CC(N)=O)NC(=O)[C@H](CCSC)NC(=O)[C@H](CCCCN)NC(=O)[C@H](CCC(=O)O)NC(=O)[C@H](CCCCN)NC(=O)[C@H](CCC(=O)O)NC(=O)[C@H](Cc1ccccc1)NC(=O)[C@H](CCCCN)NC(=O)[C@H](C)NC(=O)[C@H](Cc1ccccc1)NC(=O)[C@H](CCC(=O)O)NC(=O)CCCC[C@@H]1SC[C@@H]2NC(=O)N[C@@H]21)[C@@H](C)O)C(=O)N[C@@H](Cc1ccc(O)cc1)C(=O)N[C@@H](CCCCN)C(=O)N[C@@H](CO)C(=O)N[C@@H](C)C(=O)N[C@H](C(=O)N[C@H](C(=O)N[C@H](C(=O)N[C@H](C(=O)N[C@H](C(=O)N[C@@H](CC(N)=O)C(=O)N1CCC[C@H]1C(=O)N[C@@H](CCCCN)C(=O)N[C@@H](Cc1ccc(O)cc1)C(=O)N[C@@H](CCC(=O)O)C(=O)NCC(=O)N[C@@H](CCCCN)C(=O)O)C(C)C)C(C)C)[C@@H](C)O)[C@@H](C)O)C(C)C
B2: the binding result was “binds”.
